Source: article doi:10.1101/2020.09.21.306357

Molecular target: ACE2-Fc (soluble human ACE2 fused to human IgG Fc) (human) (UniProt Q9BYF1)
Test: BLI

ACE2-Fc (soluble human ACE2 fused to human IgG Fc) (human), sequence (Q9BYF1 18-738): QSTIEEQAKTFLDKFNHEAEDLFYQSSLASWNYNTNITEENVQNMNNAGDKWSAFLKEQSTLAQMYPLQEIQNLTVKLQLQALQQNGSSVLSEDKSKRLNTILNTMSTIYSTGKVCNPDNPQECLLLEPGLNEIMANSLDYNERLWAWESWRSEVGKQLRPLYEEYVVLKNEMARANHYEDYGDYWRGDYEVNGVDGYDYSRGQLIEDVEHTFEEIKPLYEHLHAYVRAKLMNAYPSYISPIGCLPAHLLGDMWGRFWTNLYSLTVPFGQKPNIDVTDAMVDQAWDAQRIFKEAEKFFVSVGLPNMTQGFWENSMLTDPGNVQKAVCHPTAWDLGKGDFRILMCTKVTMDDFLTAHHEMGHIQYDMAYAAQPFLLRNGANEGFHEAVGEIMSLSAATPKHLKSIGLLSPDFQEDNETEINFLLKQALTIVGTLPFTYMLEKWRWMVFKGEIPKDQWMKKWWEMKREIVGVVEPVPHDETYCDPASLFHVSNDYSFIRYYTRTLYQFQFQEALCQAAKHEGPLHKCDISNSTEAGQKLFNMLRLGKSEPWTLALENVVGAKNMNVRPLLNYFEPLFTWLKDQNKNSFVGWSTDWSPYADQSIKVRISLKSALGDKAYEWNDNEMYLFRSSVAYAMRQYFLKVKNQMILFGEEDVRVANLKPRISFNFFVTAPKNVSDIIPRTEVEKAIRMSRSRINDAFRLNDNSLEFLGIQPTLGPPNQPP

For “SARS-CoV-1 S-Trimer (wild-type SARS-CoV S ectodomain fused to Trimer-Tag) (from UniProt P59594 14-1193) (domain or fragment)”, the Kd was 1.2 nM.
